This note sets out measurements from a protein production outcome set (Wang et al. 2014).

The data set can be described thus: label from the status in PepcDB records.
Consider “MALPLVSSVSYIKSSNQFHCSFSLRKEKFELSSFFIVLCSHFSYVDTAERLELDRLLLWSSHQKIRFSKRTFSQRIVVKMSASTLPMNLGKAKKVWIWTMCKEVMTVAVERGWNTFIFSSDNRKLSNEWSSIALMDTLFIEEKKVIDGTGNVVASVFEVSTPEELRSLNIENEQIENIVLDFLDWKSIPAENLVAALQGSEKTVFAVSNTPSEAKLFLEALEHGLGGIILKSEDVKAVLDLKEYFDKRNEESDTLSLTEATITRVQMVGMGDRVCVDLCSLMRPGEGLLVGSFARGLFLVHSECLESNYIESRPFRVNAGPVHAYVAVPGGKTCYLSELRTGREVIVVDQKGKQRTAVVGRVKIEKRPLIVVEAKLSTKEEETVYSIILQNAETVALVTPHQVNSSGRTAVPVTSLKPGDQVLIRLQGGARHTGIEIQEFIVEN”, for which the protein production entry is “failed”.

For the sequence “SLIGFLSDRQGFEKQYHDIDLSSFGIREGISEIIASTGFEHPNAAPIGIVMKGERPFVRLFKGSHTWENVLKEKCLASNVVYDPILFVRSTFSDLVPSEFEYVDAGEFKFPVLKEAIAWVVFECINLRNTDQSLVADLVPLNAGFNERNIKELPVPNRGFNAVLEATVHATRYQLTGEEKYLELIRHYESLASKCGGDAEKKAMKLIYEALGL”, the protein production entry is listed as “not failed”.

For the sequence “MMSNLIILPMLLPFVCALILVFTKNKNRISKILSITTMIVNTMISIALLIYVVNHKPITLDFGGWKAPFGIQFLGDSLSLLMVSVSSFVVTLIMAYGFGRGEKRVNRFHLPTFILLLTVGVIGSFLTSDLFNLYVMFEIMLLASFVLVTLGQSVEQLRAAIVYVVLNILGSWLLLLGIGMLYKTVGTLNFSHLAMRLNHMENNQTITMISLVFLVAFSSKAALVIFMWLPKAYAVLNTELAALFAALMTKVGAYALIRFFTLLFDHHPSVTHTLLVFMACITMIIGAFGVIAYKDIKKIAAYQVILSIGFIILGLGSHTISGVNGAIFYLANDIIVKTLLFFVIGSLVYMSGYRNYQYLSGLAKREPFFGVAFVVVIFAIGGVPPFSGFPGKVLIFQGAITNGNYIGLALMIVTSLIAMYSLFRVMFIMYFGDADGEQVQFRPLPIYRKGLLSVLVVVVLAMGIAAPVVLKVTEDATNLNMKEDVFQKNVNTHLKEVNHK”, the protein production entry is listed as “failed”.

Consider “MPTTSRPALDVKGGTSPAKEDANQEMSSVAYSNLAVKDRKAVAILHYPGVASNGTKASGAPTSSSGSPIGSPTTTPPTKPPSFNLHPAPHLLASMQLQKLNSQYQGMAAATPGQPGEAGPLQNWDFGAQAGGAESLSPSAGAQSPAIIDSDPVDEEVLMSLVVELGLDRANELPELWLGQNEFDFTADFPSSC”, for which the protein production result is reported as “failed”.

For the sequence “MNEKVYYFIKSYDDSLPMPPAESFGQILNETYLHPFDWSARTTRKSYWWSVLINFILSILCIVLGFYAFNKNINPGIRVIDAVVAIVVYLWVFLAGLGQMVRRLHDVGYSGYWYWSTFTGYGTMFLFYLALQPSAQRKVKWGKYLFSDQDYPEGKKEKVPVPTIGQILKEHFFDCFNWDARSTRTSFWVGTAINQVVMVIGVLACYLIAFLLFLPFRVTGLNSDDSKVIAVFFIIFLIFFAAVTIWAFLAQLGHTVRRLHDAGFNGGWWWLSVIPYVGQLLLAFLLFHPTVKNEVKWNKYLFDPEDRIR”, the protein production result is given as “failed”.

For the sequence “MAEITEKVLKKPNAIPDVFERKGGSAPTATHYCAGCGHGIIHKLMAEAIDELEIQDRCVLISPVGCAVFAYYYFDCGNIQVAHGRAPAVGTGVSRAEDNAIVMSYQGDGDLASIGLNETIQAANRGEKMAVFFVNNTVYGMTGGQMAPTTLIGEKTVTCQTGRDPRFAGYPIHMCELLSSLKAPVFIERVSVSDIAHIRKAKRAIKKALEIQRDGKGYAFVEILSPCPTNLRQDANAAQKFINEEMEKEFPLQNFRDRSAEVETLNRGESDFSKECLDNIFEVNSKGAEDPSEDLSFEEKLVKIAGFGGQGVLSMGLTLAEAACRDQKYVSWYPSYGPEQRGGTSNCSVIISGHEIGSPVVYSPGVLIALNKPSLENFAKDVKTGGTIIYDENIGDFEIPNGVTAIKVPASKIATEMGVSRAANTVMLGVLSALGYTGLSESVFVGAIEQTFSKKPKLIPINVEILNAGISWAKENLAL”, the protein production entry is “failed”.

Take “MLLYIHVPFCRRKCRYCAFHSLPLIGEGGTSPAPEALQTPHADTAITAGPTAASTALAGVAPVTPSAQAISGQDGHTSTKGHGVPPESPPGPTANAAGMSGGIAGIVDRAGGAMRSCTPAEALPAYVETLFSELALWGDRLGNATVETIFFGGGTPSLLPPHVVAAILDRVHRTFSVAPGAEISLEANPESLSNRQQARGLYDAGVNRLSLGVQALDDALLHLMGRPHRARDAIRAFNAARDAGFTNISLDFIWGLPGQRLRQWLDQLREVVRLRPEHLSCYGLTLEEGTPLTADVESGSIALPVEREQAAMFMQGAERLEEAGYLQYEISNFARMGFQCHHNLGYWEGRDYLGLGPSATSTIDGLRWTNPYDHGAWHESVRTGRIGADAERLDLTVRVLELVMLRLRTTRGLRVKAYRELTGRDFLRDHKPLVHLLHRNGLVRIRDGYLRLTRNGMLVSNSILERFFERSETLLTLESTEKTHETRMAGPISGDTP”: the protein production entry is listed as “failed”.

Turning to “IFIGNLDPEIDEKLLYDTFSAFGVILQTPKIMRDPDTGNSKGYAFINFASFDASDAAIEAMNGQYLCNRPITVSYAFKKDSKG”, the protein production entry was “not failed”.

As to “MTEPANNHPSPPPQNWLFKWWNSLNAITRLLVLVLGAPLMVLNARALSSIFGYFESLFVISLIASVIAFLLNYPVAWLEKQGAKRFVAASFVFLTALIIFTALGVTLIPLALSQAQQLVARLPDWLDSGQKQLVLLDQKAEILGWPVNFDGLIPQINSRLAAELQNLAGSTLNLALSLTVFTVVRLLDVLLTIILTFYLLLHTDDVWQSIIGWLPERFQKPFSDTLRRSFQNYFLGQLVSATCMALGLISGFLLLKVPFGLLFGLTVGVMALIPFGGSVGIVLVTFLVALRDIGMALQLLAVALVIQQIVENGIAPRVLGSVTGLNPFWVLISLLTGARIGGLLGVIVAVPSAVMIKEALGAIRSMKPLVPAPDHNQDPLYFKNQEEVQPLPPRP”, the protein production entry was “failed”.

Turning to “MNGSEFVPLSLTPLLIGVLAAVACALPGNFLVLRRQALIGDAISHVVLPGIVVAFLLTGAIAAWPMMLGAAGAAVVAVVLIEAIRRLGRIEPGAAMGVVFTTMFAAGVLLLEQTDTSTVHLDVEHALYGNLESLIWLDATGWASLLDPVALAGLPVELSRILVTLVGVVGFIWLFWRPLKLSTFDEGFARTLGIRTNLLGLALVIVAAVAAVAAFDAVGSIIVIAMFICPPAAARMMTNTLEGQVGWSVVFAILSAVLGYVLAGYGPLWLGARDAVSAAGMIATMSGLILALTARFGPCRSRTGAPVQA”, the protein production entry was “failed”.

In the case of “LGKILQGVVVVLSGFQNPFRSELRDKALELGAKYRPDWTRDSTHLICAFANTPKYSQVLGLGGRIVRKEWVLDCH”, the protein production result was “failed”.

Regarding “MSKCGVRARLLGLCTERASAWAMALIALVAGGLLTAALAFAAHTFYKQQLRQRFELLASERASRIAERFDEQQQRLDGLRRFFSFSSEITPREFDGYARPLLQRTLAYAWAPRVEAAQRAEFERLASAHTGPGYVIRDQDAQGQWRPASQRDHYFPVLYTQSSERPGLPYGLDLAGQSEPQAALARALAPALAPGSMAVSEPLALFDTQSAERGLLMVAPVFSDADPRGAAVGYVMALLSMRELVSDGRPVAVDDNLVVRITDPSGLQGPVVLFDSQNPVAPLALASNQLLRLADHHFQLSIQPSQAFAQANRSSAVMAVGLLGGLLSLLLSVLLYSLFSQRQRALALVAQRTAELQVSEQSLRGTHNQLRSVLDAATQVAIIATNLKGVVSTFNAGAERMLGYAASEAIGRLRLEDLVLPEELNLRAQALSLRFGRAIAGGQAMFAETVQEHGAEPGEWTLLRADGSQLVANMLVTAMLDEQGLWVGYLAICIDVTERRRVHEALAARDRLLEKLSAEVPGGIYQYRLDANGHSCFPYASMGLYDIYEIDLMQLREDASAVFERIHPDDLERVRRSVRYSAEHLSPWREEYRVCLPRAGLRWVRGEATPEVGEQGCTLWHGYLTDISDLKGVEEELRALSVTDSLTGIHNRRYFQERLKIELERAQRDGLPLAVIMLDIDHFKRINDRFGHAVGDRVLRSLCQRIAQRLRRTDVFCRLGGEEFMVLCPGSDANQARLLALELWQGVRNVPVEGVGQVTASFGVAGWRSGEGADALLLRADAGVYAAKQAGRDRVEGEPV”, the protein production entry is on record as “failed”.

“MLIFLISSAIVLLADLLITYQIYREIKVRREVSGNQGGFASVIIPVRGLDVNAEENLKSLLSQDYSAYEVIYVVDDENDPIVPILRKYNVKVVVSNKNCDICSGKINAQLEGLKHARGDIIVFADSDTWFPKYWLKELVSPLSNYVATTVFSWAKPVRLTIGNIIRAGFWTLGFESQAVGGTFLWGGSMAFKREFFDERVIQELKTQWCDDCTLTRIAKERGKLGFVFNAMPLNFYDETQLITWSKRQLITVWRYSRRGVNGFIIVAIFMLAFLFLIPFNVFAITPFIFWVFKNILRSYKIGLSNSIIPSLASILAIFYSLFLIALTLREKNIIWRGKIYKV”: the protein production entry is recorded as “failed”.

For the sequence “MSLQTLLFSFQGRIGRQAFWLWNICYYAMIAGFAMGSNLLFPDVAHLILPVFLLVVLVPDLAITAKRWHDRDKSSWWLLLNVPLVIGRMTIPAGELAVNTQPGMLETLISFVALLCGAWILVECGFLSGTDGSNRFGAEPKWIKKS”, the protein production entry was “failed”.

Turning to “MPFSWLKPIDYARIFVGWASIFIIPLITLPSIIELALIVAVILFCAFGVVKMAERLAHILGDPFGSLILTLSIVIIEVILICAVMLGPADSTTAGRDSVMAVSMIIMGLVVGLCLLIGGLRHGSMPHNGVGTPTYLVLIATFSVIAFAVPAFRGEYSTGQALVISTLTAVVYGFFLFRQMGAQAGEFQEVEVAEKADDAAKWEVPFRGLILIITVLPIVLLSHDMATVMDEVLASLGAPVAMAGLIIATIVFLPETITSLKAAWTGEIQRVSNLAHGAQVSTVGLTIPAVLVIGVITGQDVVLGETPINLLLLGTTIAVTAIAFSSKKVSAVHGSVLLMLFGVYMMSMFA”, the protein production result is “failed”.

With “MAHFSARLKLLSSNDGLSFGVDSRDQFRQSLYMAGGGSPLVPIRMSRLKFCARIFSSYSFPYKRKKIRDLDNTEKNLDIDEDNDEWDFDGDDDGLETDDHLSCFRGLVLDISYRPVNVVCWKRAICLEYMDKADVLEYYDQTVSSPTGSFYIPAVLRVPHLLQVVKRRRVKNSLSRKNILLRDDYTCQYCSSRENLTIDHVMPVSRGGEWTWQNLVAACSRCNSRKGQKTADEAHMKLLKVPKEPKDYDIVAIPLTNAAIRMLRSNKGMPEEWRQYLAKPLSET”, the protein production result is recorded as “failed”.

As for “MVTVVVPAHNEDVVIAQTAKAILDMKYPRDKLEIILFADNCEDNTYQEMQSIKALPQYADRDLTLINRSGTGGKAGVLNDALKIAKGDYICVYDADAMPEKNALYFLVQKVMEDPERHVAAFGRNKTRNANQNFLTRCINQEIVVTQRIQHVGMWHLGKIGRIPGTNFIINTEFVKSIGGWRNGALTEDTDISFKIMQSGKLIALAYNSEAFQQEPETLKSYYLQRKRWAKGNYEVVIANFKHLFGRGNWRVKWEVFYYTCTFFWFNAAIVLSDILFFSNLIALIIGLFKPGVQVPFAFDANNIYMAQLLLFNWFLMILLYLLQISISQATQYGQATVKQIWIALLAYFTYTQLFIIVSISSVASVMMDKILHREGTKWVKTKRFAG”, the protein production entry is “failed”.

As to “MAEDFSVVVLASDLGIDARPFLTRSDDVDEQENWHDCPQYLGDEDFSDLDLLQFFTLQGLDRSGNRIFRIVGKYFPARVVSAERLKKYISQKISNQCPEGPLCLVYMHSTVQKDDNSPGITILRWIYEDLPSDIKDRLQLVYFIHPGLRSRLVIATLGRLLLSGGLYWKIKYVSRLQYLWEDIKKGEVEIPDFVKNHDNVLEHRPLTDYGIEPDPFQLSEVQSSSFSLNRYENRWVS”, the protein production result is listed as “failed”.
